We go through one protein from paper PMC6781908.

The nature of data set [1]: anti-GFP IP, anti-phosphotyrosine blot (autophosphorylation) from worms. The settings on record: glycan lost; control: wild-type DDR-2::GFP.
Data set [2] is described as follows: GFP fluorescence in D-type motor axons. The settings on record: glycan lost; control: wild-type DDR-2::GFP.

B1: DDR-2: N141A (protein)
parent chain: MKLLLYLFGVTFHSNTVVALELRECSHQLGMSNRKIRDEQISASSSFDLQSTGPQHARAHQESGSGAWCPKNQINSLSKEWLQISFSVDTVITSVETQGRFDDGRGMEYATAFKIQYWRPSLNAWASYKDDFELETIPANNDTEHAIRRHLDRAIIARRIRIVPVSNSTRTVCMRVEVFGCPFDDSLVFYNVDQGDLQSGISYHDFSYDGNLANSPHLTGGIGKLYDGEVGKNNVFVNHHKWVGWRRKRNGNVKLAFEFSELRNISGILIHTSNEFKKSAKAFSSATVLFSINGKDFSDTIVHFNNPEDTESEVPRWIRIPVNNRIAKVAKIRLNFGTDSDWLFISEVNFESNHTNIELLNDDVVIPDSVSYFSVTEHDDGTSMFAFIIFFFMFLIVAVIILTVLYRKREYRVKASSPSPNAKREILLTIDGNTIKHHVSPSTYQMARDNLQNALIEKMPMSPIISDYAEPDISVCSDVTANTPLLYGIDGPYDTQKRSNPLSSMVKYSDYGEVYCTTLPEIARDKLICVSRIGQGEFGEVDLCQLENRKVAVKKLHGISQADEFSFHREIRVLGSLKHPNVVEVVGVCTIQKPILCIMEYMENGDLKSYILKNPTIQTSQCISICTQLAAGLAYLESCNFVHRDIAARNCLVDGEGNVKIADFGMARSLYSQEYYKVEGKFVLPIRWMAWEALLLGKFSTASDVWGFGVTMWEIFSLCSEKPYSDMTDDDVVENLQSMSSTGSLKQVLSRPRMCPSKLYNEQILPCWNYESSRRPSFENVHLHLQSLVHTSPHIHF
Consider B1, for which the enzymatic_activity entry in data set [1] was “no change”. For the same protein, the localisation_or_trafficking entry in data set [2] is “no change”.
